Earlier results as cited in PMC12152952.

Target: EphA2 (ephrin type-A receptor 2) (UniProt P29317)
Conditions: 2'-fluoro on lowercase residues (all C and U; 2'-F pyrimidines), A and G are ribo

Chain of EphA2 (ephrin type-A receptor 2) (P29317 24-537): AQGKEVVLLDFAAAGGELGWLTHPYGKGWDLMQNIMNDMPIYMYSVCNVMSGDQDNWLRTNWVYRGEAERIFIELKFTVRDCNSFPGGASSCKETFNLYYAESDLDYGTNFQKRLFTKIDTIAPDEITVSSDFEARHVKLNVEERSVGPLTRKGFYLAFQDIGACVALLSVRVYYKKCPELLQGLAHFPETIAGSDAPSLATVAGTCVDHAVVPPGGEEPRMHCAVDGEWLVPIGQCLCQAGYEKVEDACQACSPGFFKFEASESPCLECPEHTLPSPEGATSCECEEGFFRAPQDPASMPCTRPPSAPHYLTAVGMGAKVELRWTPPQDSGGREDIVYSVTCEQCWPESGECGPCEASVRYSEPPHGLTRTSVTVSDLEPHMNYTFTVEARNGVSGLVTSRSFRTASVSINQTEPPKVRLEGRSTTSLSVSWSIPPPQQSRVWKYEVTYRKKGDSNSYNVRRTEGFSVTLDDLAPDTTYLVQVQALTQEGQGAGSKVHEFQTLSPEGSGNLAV

Q: With CCUGUUGUUCGACAGGAGGCUCACAACAGG [A40s] as the sequence, how does the Kd read?
A: 0.76 nM
